Measured values from patent publication US20250154268A1 (NONA BIOSCIENCES SUZHOU, published 2025).
Read-outs that look alike come from different tables or passages of the source.

T1: human CD25 (human, UniProt P01589 22-272)
T1 construct: whole, on cells; Always presented on cells; also called huCD25; IL2Rα
T1 sequence (looked up): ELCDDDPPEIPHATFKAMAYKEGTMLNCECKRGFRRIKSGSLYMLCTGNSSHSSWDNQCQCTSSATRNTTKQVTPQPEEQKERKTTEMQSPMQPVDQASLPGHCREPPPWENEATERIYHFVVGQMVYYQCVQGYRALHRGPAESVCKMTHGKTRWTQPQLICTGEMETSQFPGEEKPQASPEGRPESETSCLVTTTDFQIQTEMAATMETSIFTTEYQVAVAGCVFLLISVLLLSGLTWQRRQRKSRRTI

T2: cynomolgus monkey CD25 (cynomolgus monkey, UniProt H6WS54 22-272)
T2 construct: whole, on cells; also called cynoCD25
T2 sequence: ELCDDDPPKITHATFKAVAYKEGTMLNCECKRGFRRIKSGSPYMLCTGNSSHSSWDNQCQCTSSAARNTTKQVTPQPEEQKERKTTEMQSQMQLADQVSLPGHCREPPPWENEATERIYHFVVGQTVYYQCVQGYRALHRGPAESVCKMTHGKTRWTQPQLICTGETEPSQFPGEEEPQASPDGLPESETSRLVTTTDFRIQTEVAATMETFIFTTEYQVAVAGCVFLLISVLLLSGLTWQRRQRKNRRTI


Experiments:
human CD25 [1] = biological target: T1, human CD25; experiment: flow cytometry, SU-DHL-1 cells
Method: (§1) Briefly, the CHOK1-huCD25 cells and HEK293-cynoCD25 cells were digested, the SU-DHL-1 cells, Karpas299 cells, Treg cells and Teff cells were collected, and the cells were resuspended in PBS containing 2% BSA. The cells were adjusted to a cell density of 1×10⁶ cells/mL, respectively. […] The cells were incubated at 4° C. for 1 hour in the dark. After the incubation, the cells were rinsed twice by adding pre-chilled PBS containing 2% BSA at 100 μL/well, and centrifuged at 500 g at 4° C. for 5 minutes, and the supernatant was discarded. […] The cells were washed twice by adding pre-chilled PBS containing 2% BSA at 100 μL/well, and centrifuged at 500 g at 4° C. for 5 minutes, and the supernatant was discarded. Finally, the cells were resuspended in pre-chilled PBS containing 2% BSA at 200 μL/well, and the fluorescence signal values were read using a BD CantoII flow cytometer.

human CD25 [2] = biological target: T1, human CD25; experiment: flow cytometry, Karpas299 cells
Method: as §1

human CD25 [3] = biological target: T1, human CD25; experiment: flow cytometry, CHOK1-huCD25 cells
Method: as §1

cynomolgus monkey CD25 [4] = biological target: T2, cynomolgus monkey CD25; experiment: flow cytometry, HEK293-cynoCD25 cells
Method: as §1

human CD25 [5] = biological target: T1, human CD25; experiment: flow cytometry, SU-DHL-1 cells; remark: listed apart in the source
Method: as §1

human CD25 [6] = biological target: T1, human CD25; experiment: flow cytometry, Karpas299 cells; remark: listed apart in the source
Method: as §1

cynomolgus monkey CD25 [7] = biological target: T2, cynomolgus monkey CD25; experiment: flow cytometry, HEK293-cynoCD25 cells; remark: listed apart in the source
Method: as §1

EC50 (human CD25 [1])	Maximum MFI (human CD25 [1])	EC50 (human CD25 [2])	Maximum MFI (human CD25 [2])	EC50 (human CD25 [3])	Maximum MFI (human CD25 [3])	EC50 (cynomolgus monkey CD25 [4])	Maximum MFI (cynomolgus monkey CD25 [4])	EC50 (human CD25 [5])	Maximum MFI (human CD25 [5])	EC50 (human CD25 [6])	Maximum MFI (human CD25 [6])	EC50 (cynomolgus monkey CD25 [7])	Maximum MFI (cynomolgus monkey CD25 [7])	Binder
4.9 nM	44300 MFI	4.31 nM	24900 MFI	8.19 nM	22400 MFI	3.73 nM	60500 MFI							PR005433 (antibody, human IgG1, kappa, V domains shown, Fully human recombinant IgG1, kappa; Clone No. 308B6F9 is printed for both PR005433 and PR005435; also called 308B6F9) VH: EVQLLESGGGLVQPGGSLRLSCAASGFTFSSYAMSWVRQAPGKGLEWVSTLSGRGGSTYYADSVKGRFTISRDNSNNTLYLQMNSLRAEDTAVYYCAKEGYSSSYYEYFQHWGQGTLVTVSS VL: EIVLTQSPATLSVSPGERATLSCRASQSISSNLAWYQQKPGQAPRLLIYGASTRATGIPARFSGSGSGTEFTLTISSLQSEDFAVYSCQQYNYWPLTFGGGTKVEIKR
97.6 nM	19500 MFI	65.4 nM	16200 MFI	15.2 nM	31700 MFI	4.15 nM	154000 MFI							PR005435 (antibody, human IgG1, kappa, V domains shown, Fully human recombinant IgG1, kappa; Clone No. 308B6F9 is printed for both PR005433 and PR005435; also called 308B6F9) VH: QVQLQQSGPGLVKPSQTLSLTCAVSGDRVSNINAAWNWIRQSPSRGLEWLGRTYYRSKWYNDYAVSVKSRISINLDTSKDQFSLQLNPVTPEDTAVYYCARDPWEAFDYWGQGTLVTVSS VL: EIVMTQSPATLSVSPGERATLSCRASQSVSSNLAWYQQKPGQAPRLLIYAASTRATGIPARFSGSGSGTEFTLTISSLQSEDFAVYFCQQYNDWSITFGQGTRLEIKR
								2.2 nM	32000 MFI	2.12 nM	16400 MFI	3.25 nM	146000 MFI	PR006930 (antibody, human IgG1, kappa, V domains shown, Fully human recombinant IgG1, kappa; also called 170H1E12) VH: EVQLLESGGGLVQPGGSLRLSCAASEFTFSSYAMSWVRQAPGKGLEWVSTISGSGGNTYYADSVEGRFTISRDNSKNTLYLQMNSLRAEDTAVYYCAKEAYSSSWYEYFQHWGQGTLVTVSS VL: EIVMTQSPATLSVSPGERATLSCRASQSVSDTLAWYQQKPGQAPRLLIYGASTRATGIPARFSGSGSGTEFTLTISSLQSEDFAVYYCQQYNYWPLTFGGGTKVEIRR
								1.53 nM	43900 MFI	1.21 nM	18300 MFI	1.63 nM	82000 MFI	PR006122 (antibody, human IgG1, kappa, V domains shown, Fully human recombinant IgG1, kappa; also called 189F2G11) VH: QVQLVESGGGVVQPGRSLRLSCAASGFTFSSYYMHWVRQAPGKGLEWVAVIWYDGSNKYYADSVKGRFTISRDNSKNTLYLQMNSLRAEDTAVYYCAGAGKGELPFDYWGQGTLVTVSS VL: not shown
								4.68 nM	27300 MFI	20.3 nM	10000 MFI	17.5 nM	90100 MFI	PR006927 (antibody, human IgG1, kappa, V domains shown, Fully human recombinant IgG1, kappa; also called 113D5A1) VH: QVQLQESGPGLVKPSETLSLTCTVSGGSIRSYYWSWIRQPPGKGLEWIGYIYYSGSTNYNPSLKSRVTISVDTSKNQFSLKLSSVTAADTAVYYCARDILTGYSDWFFDLWGRGTLVTVSS VL: not shown
								3.51 nM	34400 MFI	2.91 nM	12000 MFI	3.92 nM	151000 MFI	PR006932 (antibody, human IgG1, kappa, V domains shown, Fully human recombinant IgG1, kappa; also called 184B11A4) VH: QVQLVQSGAEVKKPGASLKVSCKASGYTFTGYYMHWVRQAPGQGLEWMGWINSNSGDKRYAQKFQGRVTVTRDTSISTAYMELSRLRSDDTAVYYCAREGAGDAFDFWGQGTMVIVSS VL: not shown
								8.48 nM	33700 MFI	40 nM	9450 MFI	6.25 nM	152000 MFI	PR006931 (antibody, human IgG1, kappa, V domains shown, Fully human recombinant IgG1, kappa; also called 171B2D12) VH: not shown VL: DFQMTQSPSTLSASVGDRVTITCRASQSISSWLAWYQQKPGKAPKLLIYEASSLKSGVPSRFSGSESGTEFTLTISSLQPDDFATYYCHQYNSYSTFGQGTKVEIKR
